Measured values taken from patent publication US20180303898A1 (SANFORD BURNHAM PREBYS MEDICAL DISCOVERY INSTITUTE, published 2018).
Values belong to the binder of their own block, whether it stands above or below them. Bridges are numbered along the chain shown (N, C = ends). Where no end group is shown, it is not given here. FAM = 5(6)-carboxyfluorescein; Ahx = NCCCCCC(=O)O

Assays:
[1] = target: T1, recombinant 6x-His-tagged p32 protein (p32/p33/gC1qR/HABP1) (UniProt Q07021 74-282); assay: fluorescence polarization, FAM-labeled peptide constant, p32 titrated (FIG. 2A)
T1 construct: not shown: 6x-His tag
T1 sequence (looked up): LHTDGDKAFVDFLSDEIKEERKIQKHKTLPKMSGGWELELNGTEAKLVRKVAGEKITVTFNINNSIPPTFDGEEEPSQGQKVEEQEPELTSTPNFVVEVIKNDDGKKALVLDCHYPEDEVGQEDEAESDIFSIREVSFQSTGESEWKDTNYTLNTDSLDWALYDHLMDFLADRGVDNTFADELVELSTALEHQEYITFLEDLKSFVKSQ
Protocol: FIGS. 2A-2D are graphs showing FP- and phage binding-based validation of p32 binding peptides and hit compounds. […] Measurements were performed with PheraStar FS plate reader (BMG Labtech, Ortenberg, Germany) on 384-well plate. […] (C) Assessment of hit compound binding to a non-target secondary protein, NRP-1, to determine the specificity of the hit compounds in FP assay. A known NRP-1 binding peptide, RPARPAR (SEQ ID NO:18), was used as a control. (D) Effect of the hit compounds on the TT1 phage binding to p32 protein. TT1 phage binding to p32 in the presence of 100 μM hit compounds was determined in ELISA-type of binding assay. Each data point presents average±S.D., n=4.
The assay was initially set up in 20 μl well volume in 384 well plate (Corning Life Sciences), and measurements were carried out using PheraStar FS plate reader (BMG LABTECH, Ortenberg, Germany) in quadruplicate. […] Optimal concentration of fluorescein (FAM) labeled-peptides for the assay was determined by measuring the limit of detection (LOD), signal-to-background ratio (S/B), and stability of mP value over series of peptide concentrations. In the binding assay, the concentration of FAM-peptide was kept constant, and the FP was measured over the range of target protein concentrations. […]

[2] = target: T2, b1b2 domain of neuropilin-1 (NRP-1), recombinant (UniProt O14786 273-586, limits assumed); assay: fluorescence polarization, recombinant b1b2 domain of NRP-1
T2 construct: domain: b1b2 domain; also called NRP-1 b1b2; b1b2 domain of NRP-1
T2 sequence (looked up): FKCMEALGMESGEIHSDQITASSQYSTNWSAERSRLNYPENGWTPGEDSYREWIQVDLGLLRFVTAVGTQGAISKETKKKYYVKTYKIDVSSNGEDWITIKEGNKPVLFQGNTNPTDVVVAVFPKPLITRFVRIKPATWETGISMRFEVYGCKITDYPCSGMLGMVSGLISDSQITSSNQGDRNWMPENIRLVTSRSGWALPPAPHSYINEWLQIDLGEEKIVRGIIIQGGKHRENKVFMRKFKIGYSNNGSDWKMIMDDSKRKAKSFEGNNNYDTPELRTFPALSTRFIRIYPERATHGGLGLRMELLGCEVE
Protocol: FIG. 8 is a graph showing specificity of TT1 binding. Specificity of TT1 was further evaluated by measuring the binding of FAM-TT1 to recombinant non-target protein, b1b2 domain of neuropilin-1 (NRP-1). The binding was studied by fluorescence polarization. […] Each data point presents average±S.D., n=4-6.
(§1) The assay was initially set up in 20 μl well volume in 384 well plate (Corning Life Sciences), and measurements were carried out using PheraStar FS plate reader (BMG LABTECH, Ortenberg, Germany) in quadruplicate. Peptide and protein stock solutions were diluted to desired concentration with assay buffer (50 mM BIS-TRIS pH 7.4, 0.05% Tween20, 1 mM DTT). FAM-labeled peptides were protected from light during the experiment to avoid photobleaching. Optimal concentration of fluorescein (FAM) labeled-peptides for the assay was determined by measuring the limit of detection (LOD), signal-to-background ratio (S/B), and stability of mP value over series of peptide concentrations. In the binding assay, the concentration of FAM-peptide was kept constant, and the FP was measured over the range of target protein concentrations. The peptide dissociation constant (KD) was obtained by fitting the binding curve into Michaelis-Menten kinetics in GraphPad Prism-software (GraphPad Software, Inc., CA, USA). […]

[3] = target: T1, recombinant 6x-His-tagged p32 protein …; assay: fluorescence polarization, FAM-TT1 constant, p32 titrated, in BIS-TRIS buffer
Protocol: FIG. 6 is a graph showing the effect of buffer solution on interaction of TT1 and p32. The binding affinity of FAM-labeled TT1 to p32 was studied in different assay buffers: in PBS, HEPES, and BIS-TRIS, respectively. The binding was measured by fluorescence polarization (FP) and observed as increased FP value. Binding constants (KD) were calculated by fitting the binding curves into Michaelis-Menten kinetics. Each data point presents average±S.D., n=4-6.
as §1, with “concentrations.” for “concentrations. The peptide dissociation constant (KD) was obtained by fitting the binding curve into Michaelis-Menten kinetics in GraphPad Prism-software (GraphPad Software, Inc., CA, USA).”

Kd [1]: 23 µM
B1: FAM-labeled LyP-1 peptide (CGNKRTRGC) (peptide)
peptide: {FAM-Ahx}-CGNKRTRGC
modifications: disulfide 1-9 (inferred)
notes: also called FAM-LyP-1

binding result [2]: no binding | Kd [3]: 2.3 µM
B2: FAM-labeled TT1 peptide (CKRGARSTC) (peptide)
peptide: {FAM-Ahx}-CKRGARSTC
modifications: disulfide (positions not given here); not fully specified (bridges); also: cyclic peptide, ring type not given here
notes: Synthetic fluorescent peptide used as the probe in the fluorescence polarization assays; also called FAM-TT1; FAM-TT-1
